Measured values from PMC2683827.

Target: paclitaxel stabilized microtubules (UniProt P02550)
Test: co-sedimentation; tau 0-10 μM mixed with paclitaxel stabilized microtubules (1.6 μM tubulin dimers, 20 μM paclitaxel) in 80 mM PIPES pH 7.0, 2 mM MgCl2, 0.5 mM EGTA; 30 min at room temperature; 100,000 x g for 5 min at 23°C; tau in the pellet measured by gel densitometry or western blot; noncooperative single-site fit; unphosphorylated and GSK-3β phosphorylated tau

Chain of UniProt P02550 (P02550 whole entry, looked up): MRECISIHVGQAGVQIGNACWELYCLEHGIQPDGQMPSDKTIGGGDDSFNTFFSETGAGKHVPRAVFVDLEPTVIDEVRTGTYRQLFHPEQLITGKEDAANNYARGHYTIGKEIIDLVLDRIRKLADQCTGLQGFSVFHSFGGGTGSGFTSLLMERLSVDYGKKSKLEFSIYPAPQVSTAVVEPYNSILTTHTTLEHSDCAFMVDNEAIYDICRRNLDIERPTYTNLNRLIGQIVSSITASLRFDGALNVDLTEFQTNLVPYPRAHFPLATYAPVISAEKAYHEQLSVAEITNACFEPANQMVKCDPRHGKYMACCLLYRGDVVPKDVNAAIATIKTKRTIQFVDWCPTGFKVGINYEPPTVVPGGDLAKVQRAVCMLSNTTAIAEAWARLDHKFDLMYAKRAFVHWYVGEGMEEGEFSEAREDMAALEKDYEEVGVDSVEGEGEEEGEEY

| fold decrease in microtubule affinity upon GSK-3β phosphorylation, against the unphosphorylated isoform | Substance |
| --- | --- |
| 3 fold | GSK-3β phosphorylated tau isoform 1N3R (from UniProt P10636-4 1-381) (natural protein) |
| 3 fold | GSK-3β phosphorylated tau isoform 1N4R (from UniProt P10636-7 1-412) (natural protein) |
